experiment: soluble fraction after stress (log2 fold change); higher = more stays soluble; pooled small domains, quantitative proteomics; details: stress: 75 degC
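Note: 20 min heating vs room temperature control held 20 min.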

Going from “HMLADIGGRIADLRREVGLTQGELAEKADISVVHLSNIELGKKTPGLSTLIRIAEALDVATDWILQA” to “HMLAFDKDDSGAVAEIILVLGRYWMDFSHKKYPAAEGVALRHKGLSHIFTVLRPYLSTPASELIGERLRR”, the “soluble fraction (log2)” value rises from -1.38 to -0.0618.

First: HMLAGVDTLADRELEVFQMLGRGKSTKEIAQVLNLGESTVETYRARIKEKLQLRSAAELYLRAGQWVRDHG
Second: HMLAIKKGGIFAILGPNGSGKSTFSKVLAGHPAYTVVDGDIFFKGLSILDLEPEERSHLGIFLAFQ
The “soluble fraction (log2)” value of the first is lower: -1.09 for the first, -0.286 for the second.

Compared with “HMLAKRYLVYGSGSLNSAYPDTKNIAYGIDSGKGFFLVGILTENEASKLKLKGYYVIEDFPLDFH”, “HMLAPLAEMRGDTLDRLEKAVLELFSSRDFHEVSLQDVARRANVSLQTIYKYFGSKEALVYTMLDTLLGR” is higher in “soluble fraction (log2)” value: -1.45 for the first, -0.416 for the second.

First: HMLAQVSDEGPIRAMVEAVMARSTQQLEDYKNGKVKLRQYFFGEVMKAAKGKANPTVINKLLDEMLPETL
Second: HMLAQYPGQVFSKEQIYNQVWKEPYYGVEDNVMSLIRRIRKKIEPDPSRPIYILTVWGIGYKFNN
The “soluble fraction (log2)” value of the first is lower: -0.314 for the first, 0.0812 for the second.

First: HMLARFSGIALNTWTQADVERTFGPPMLVERVARFDGDIWTYRFMDDYEPRMAHIHIDRAGTVRQLVF
Second: HMLAVEKIEFVGNERIAAADLESALSALYDRPMTTISDDEIAKLLSGFSLIETFTSQAEPPHTLRVNIRE
The “soluble fraction (log2)” value of the first is lower: -2.86 for the first, 0.083 for the second.

Compared with “HMLDEKFLSELMLALLRNHRRGLRAEVLLHKVRSNMELDGYKSLLVGVGRMEMWELAREIIDFVKAEG”, “HMLDGFEVGMTVMRKPGTETGFTGWPPFADKDEFPVIERIDTSDSTLLLRFNDTSWWINASLVEPSDV” is higher in “soluble fraction (log2)” value: -4.4 for the first, -2.19 for the second.

First: HMLDIPEVGQAVQVRGRLGTVFSVAPYDGREGRLHLVTVDYLDDARPPENDEILWEIESGARILG
Second: HMLDLNEVEFYAIENQLKENLKIDSKRFYELVPLIKGYQEDDIIQVLRWLIDNNRIIRHKDESLTWHS
The “soluble fraction (log2)” value of the first is higher: -0.698 for the first, -1.68 for the second.

“HMLDLSEEEQKIVSILEKQGNLQINSLVVEADIPVHKINAILFELEMKGVVRVLALSLIHISEP” and “HMLDPVLQREKDESFTDYHIRLFKNKDTYHIDTKTIATLLNKDQGTNYDESKWRKDFKQYERWNDYIMSKN” are within 0.2 log units of each other in “soluble fraction (log2)” value: 0.149 for the first, 0.116 for the second.

“HMLDPYNVLGVPRDAGMDEIKKAYRKLSRTYHPDANIDNPNKAQAEEKFKQIQEAYQQIVKERTE” and “HMLDQAVPVFETPKYAVSYIQNRLVEMKAASPEEAASRFYESISESERRGLFEALLIKEAEES” are within 0.2 log units of each other in “soluble fraction (log2)” value: -0.0272 for the first, 0.0105 for the second.

Going from “HMLDQGTQSRYQIMDGVRALITGDWSSHGAGLVRELSQEVARTSGLTATSERTFFVPFSALS” to “HMLDSDARRRGLIEYLSLNGYATMRQLAGEFDVSINTIQRDITYLARYYPLETAYGRYGGGVYFEQNWQ”, the “soluble fraction (log2)” value falls from 0.00593 to -1.44.

Compared with “HMLDSGNPILPYKLSLLANVDIRTVRNAISAGELVAFKSEFDGEVYVENGSARRWLHGRRGFKPTLK”, “HMLDSNILTLIKELKIRHHFTATQTHQLEKVIQQAHALGLDNSEIRSLANSSPSAKSLINDLNQKLEPLRL” is higher in “soluble fraction (log2)” value: -2.56 for the first, -1.44 for the second.

Compared with “HMLDTELEANLRSQRDQKLVEELDPIVTNPLRWAELTSDKQTEWTQYRTDLLNVPQQSGFPTNVTWPEKP”, “HMLDVFSAEQVADVLSVSKRNLETWANNGKLIPDFIHGEVALYSKKQLEQFEQFQRFFNSSWDAERLIQP” is lower in “soluble fraction (log2)” value: 0.216 for the first, -1.54 for the second.

Compared with “HMLDVGDQLVKKLKDNDSLDFHFVNSKEANKGLKDGDYYMVITIPSNFSKNATTLLDKNPKKMVLNYTTNP”, “HMLEAKQIQDNWESLIKLIEDNFTGERKENLLKMYTHFQDRMMFAPASSKEHFHNAFPGGYVEHVL” is lower in “soluble fraction (log2)” value: -0.0273 for the first, -0.369 for the second.

Compared with “HMLEDIDNSIKKEIILEHYDKMLEFHGDYGAIIFRKLLHAYSKGYTGANEFRDLVNQISDKNIMRDLIESF”, “HMLEEIIDVKRFLVENVRGVSEKTALAILSEFGDKTMDVLRNSPNELYRIKGMSGKRIEVIKDAIANATAS” is higher in “soluble fraction (log2)” value: -0.947 for the first, -0.568 for the second.

Going from “HMLEINTIIGNNLKKIRQEKKLTLDELAGITGVSKGMLSQIEKGTTNPTINTIWKISNGLNVPYTYLLEDD” to “HMLENIVFTNKFKNKRLDVLLVDMKLVSSRQKAVSLIMRGNVFVEEERADKPGKIIKLNQTISLKK”, the “soluble fraction (log2)” value falls from -0.513 to -2.78.

Going from “HMLERPLKLKSHYVSAINEKVAVQFQAGEERKSIMGTLTEVNQDTIVIDDRGSVTEIPFKSIIRAKTVF” to “HMLESPVEAIIRQIKQLITNGKLKPGDRLPAERLLAENFGVGRGYVREAIMKLEFFGLLKTSPQSGTYVAG”, the “soluble fraction (log2)” value falls from -0.621 to -1.39.

Compared with “HMLETIDIFKVTGGEPFLSKDFLEILDLAIEKDLAKNITLMITTNASKFVKKILDKFIHFKRVEFTVS”, “HMLFGKKYLGKVPNDASGRISLWNDIVKHHQELQNIRAIENFTSDNVTVAQGDTKKAVVVTDYVT” is lower in “soluble fraction (log2)” value: 0.407 for the first, -0.286 for the second.

Compared with “HMLFQGDTPAENIILEILSKNGTTASDSIIKQSGLSVSDFNQAATMLEIKGLISNNGGNIWSL”, “HMLFVKLSDAQRSMFGAKLARDARIQSEYAQKLPSENYEVFGKALADMLLDETHFKTFYPLLVEYGYTQPK” is lower in “soluble fraction (log2)” value: -0.0591 for the first, -1.32 for the second.

Going from “HMLGDIYISIPRAKLQAEEYGHSFKRELAFLAVHGFYHLLGYDHQTKEEEEVMFGKQEEVLAEFDIKR” to “HMLGKNEAKEYKVAYGDIGKMPALIMGLVPLPKPPVVDERLRTLYVTATPEQHREIEAIMNRI”, the “soluble fraction (log2)” value rises from -0.0616 to 0.236.

First: HMLGKSNAERQLDLILGAIERSITGVSRSKLMQAYHLDSRGATAAFETLEQRGLITRSKSGRTELLIPTRV
Second: HMLGWEDVIQFEEVKGYGQHIWRDGNHLYYVTEEGGIAPQRVVYELPNELFALLESGERTQLEILSKLQ
The “soluble fraction (log2)” value of the first is higher: -1.78 for the first, -2.51 for the second.

First: HMLHNEFINDRIQSAINNLSEHFKIVIILRDIQELSYEEISNIVEVPLGTIKSRINRARIQLQAELLDL
Second: HMLILDTDGRYVIKRGDSLSEILEKIANGSNINLNLLKRAFVTANPKAFKRANPNWMYANAR
The “soluble fraction (log2)” value of the first is higher: 0.215 for the first, -0.249 for the second.

“HMLIPTISVTKEGQLRFENIPVSWEELGTRLRDVSDLDKIKIYADAESDALTISEIMKTAANVGIVQFVLV” and “HMLIRKGVVSFFNDAKGYGFIKDLVTQESAFVHVNSLSETIKEHDKVTFEVEMGHKGANAVNVKLVK” are within 0.2 log units of each other in “soluble fraction (log2)” value: -1.03 for the first, -1.09 for the second.

Going from “HMLIVLKPNVSQEEIDHIVDKIRSLSLEPHVSTGVQRTIITVIGDEDVIREQPLEALAGVESVKSILKP” to “HMLKGTVKWFNESKGFGFIEQEEGKDVFVHYSAITGSGFKTLNEGDKVQFEIVDGPKGPAAANVSK”, the “soluble fraction (log2)” value rises from -0.358 to 0.036.

Going from “HMLKKGDQVYIISGKDKGKLGVVSQIVSEERILVDGINLAKKHVKPNPNKNETGGVVEKEMPIHASNVMI” to “HMLKLTDRQKVILSILMSDGEKTASWIASQLGVGLRSVQLDLSYLRNNGFIKKASKSTHSAWIVLKK”, the “soluble fraction (log2)” value falls from 0.243 to -4.1.

Going from “HMLKPIHKDWSPNGDAKEILLKAGITEEFIQKELPEFIMYWSERNEESDIWNSKFIAHIRRRWGRFS” to “HMLKPVVLLGARGLTDAVEKEVERALDEHGLIKIHVPSDDREERDEIYTTLADKLNAARIQAIGKMLVLW”, the “soluble fraction (log2)” value rises from -1.64 to -0.0344.

Going from “HMLKSGSAVAQARDVILEKGVPVHINEILDALGKGDTREAKASLTSSLAAYVRRGEIFTRPAPNTFGLVEL” to “HMLKTADAIASVLLTRIQAGEFSAGRLPAERALSEAFSTTRITLREALGKLEAQGMIYRELRRGWFIA”, the “soluble fraction (log2)” value falls from -0.592 to -1.85.

First: HMLLFNPGEVLKGFVLQSGTNNRVLLQIGDSRVIADTQTPLKAGEQLVLRVEETGPKTILQILG
Second: HMLLGDYIQKLRNQRGLSQQEFADKLGIGRSTLANYEQNKRSPDYETLIEISKFFNVSIDELLGV
The “soluble fraction (log2)” value of the first is higher: 0.177 for the first, -1.05 for the second.

For “HMLLLASTPAEQTIIQLLAEGWRDGDQLQQRSHLSAADFSTALTMLEVNGSIKPLGANHWALTH”, the “soluble fraction (log2)” value was -1.26.

From the domain aggregation screens of Martell et al. (2025)
